Source: PMC4449185

What was measured:
[1] = pseudovirus neutralization, global sensitivity (≥2 of 6 non-nAbs); settings: glycan lost
[2] = TZM-bl pseudovirus neutralization ID50; settings: glycan lost
[3] = pseudovirus neutralization (S4 Table); settings: glycan lost; control: JR-FL parent

ADA Env: N197D
other: neutralisation sensitivity ([1]; control: ADA parent): no change

JR-CSF Env: N197D
other: neutralisation sensitivity ([2]; control: JR-CSF parent): increases | other: neutralisation sensitivity ([1]; control: JR-CSF parent): no change

JR-FL Env (gp160∆CT): N160A
other: neutralisation sensitivity [3]: no change

JR-FL Env (gp160∆CT): N332Q
other: neutralisation sensitivity [3]: no change

PVO.4 Env: N197D
other: neutralisation sensitivity ([2]; control: PVO.4 parent): no change | other: neutralisation sensitivity ([1]; control: PVO.4 parent): no change
